In US6380375B1, “DNA encoding monkey gonadotropin releasing hormone receptor” (Merck & Co., Inc., priority 1999, dated 2002):

How the values were obtained:
[1] = biological target: monkey gonadotropin-releasing hormone (GnRH) receptor (monkey); assay: whole cell radioligand binding, eight of the 96 neoR CHO-K1 clones screened
[2] = biological target: monkey gonadotropin-releasing hormone (GnRH) receptor (monkey); assay: whole cell radioligand binding, best CHO-K1 clone expressing the monkey GnRH receptor
monkey GnRH receptor [3] = assay: Phosphoinositide (PI) turnover assay in CHO-K1 cells stably expressing the monkey GnRH receptor; assay type: cell-based; details: monkey GnRHR-CHO-K1 cells, 37° C., 1 hour, FIG. 7; read-out: EC50 of GnRH-stimulated PI turnover
Procedure: The ORF of the monkey GnRH receptor was subcloned into a polycistronic expression vector pIRES1.neo (Clontech Laboratories, Palo Alto, Calif.) to generate cells that stably express these receptors. In this vector, the cloned receptor cDNA and the neo gene were transcribed into one mRNA. The plasmid DNA of pIRES1.neo-mkGnRHR was transfected into CHO-K1 cells using the method of lipofectin. Transfection was carried out for overnight and the cells were split 48 hours later. G418 at 1 mg/ml was added 24 hours after splitting, and its concentration was increased to 2 mg/ml in 2-3 days. After 10 days selection by G418, colonies were picked and transferred to 24-well plates. The monkey GnRH receptor expression clones were screened by the whole cell binding assay using a radiolabeled peptide agonist of GnRH, 5-(^125Iodo-Tyr)-Buserelin (Woods Assay, Portland, Oreg.). […] After single cell isolation, the membrane from this clone was prepared, and the membrane binding assay was performed using ^125I-buserelin. […] The GnRH-stimulated PI turnover was also performed.
CHO-K1 cells stably expressing the monkey GnRH receptor are functionally coupled to phospholipase C. […] The eluate was then counted in a scintillation counter.

[4] = biological target: monkey gonadotropin-releasing hormone (GnRH) receptor (monkey); assay: cell-based or functional assay
monkey GnRH receptor [5] = assay: Aequorin bioluminescence assay in CHO-K1 cells stably co-expressing the monkey GnRH receptor and apo-aequorin; assay type: cell-based; details: CHO-K1 cells co-expressing monkey GnRHR and apo-aequorin; P1/(P1+P2) response
Procedure: To construct this dual stable cell line, the 600 bp aeq gene was cut out by EcoRI and KpnI from pcDNA3.aeq, and inserted into pIRES1hyg (Clontech Laboratories, Palo Alto, Calif.) at BamHI that was blunt-ended. The positive clones were identified by colony-hybridization using the probe of aeq. The new construct that contained aeq and hyg was transfected into monkey GnRHR-CHO-K1 cells (as Example 5). The transfectants were selected by 600 μg/ml hygromycin (Boehringer Mannheim, Indianapolis, Ind.) for 10 days, and 480 hyg^r colonies were transferred into 96-well plates. These clones were assayed for aequorin by the aequorin bioluminescence assay as described in Example 7, and many positive clones were identified. […] This clone was single cell isolated, and used for the functional evaluation of the monkey GnRH receptor by the aequorin assay.
The aequorin assay has been widely used to monitor the changes in the cytosolic Ca^2+ concentration caused by the activation of the G-protein coupled receptors. […] The plate was read immediately in a Bioluminomitor (Lumino Skan RS) for 30 seconds. […] The remaining unreacted aequorin was determined by lysing the cells with 0.1% Triton X-100 (Sigma, St. Louis, Mo.). […] The percentage of aequorin which responded to GnRH challenge was calculated as P1/(P1+P2). […]

Molecule	specific binding, fold above the non-specific binding [1] [fold]	fold above the background [2] [fold]	specific binding activity [2] [cpm]	EC50 (monkey GnRH receptor [3]) [nM]	GnRH-stimulated PI turnover, EC50 [4] [nM]	aequorin bioluminescence assay, AUC for P1 [4]	aequorin bioluminescence assay, EC50 of GnRH [4] [nM]	aequorin bioluminescence assay, P1/(P1+P2) ratio [4] [%]	EC50 (monkey GnRH receptor [5]) [nM]
5-(125Iodo-Tyr)-Buserelin (peptide)	3	5	645						
Gonadotropin-releasing hormone (neuronal decapeptide hormone released from hypothalamus; obtained from a vendor and used as agonist) peptide: QHWSYGLRPGGKRDAENLIDSFQEIVKEVGQLAETQRFECTTHQPRSPLRDLKGALESLIEEETGQKKI				0.43	0.43	1290	2	71	2
